Test results reported in US20220315631A1, “STAPLED BETA-CATENIN LIGANDS” (Ohio State Innovation Foundation, priority 2019, published 2022).
Positions of bridges follow the written chain, without caps; N, C: chain ends. Non-standard residues stand in square brackets, D forms with d. Residues, ends and D or L forms follow the SMILES beside them. Chains are numbered I, II in the order given. No end group written: not given here. m‑xylene = 1,3-bis[(methylthio)methyl]benzene scaffold from m-xylene dibromide; miniPEG = polyethylene glycol moiety (linker unit); 1Nal = N[C@@H](Cc1cccc2ccccc12)C(=O)O; 2Nal = N[C@@H](Cc1ccc2ccccc2c1)C(=O)O; Bta = N[C@@H](Cc1csc2ccccc12)C(=O)O; Tle = CC(C)(C)[C@H](N)C(=O)O; Dap = NC[C@H](N)C(=O)O; AEEA = NCCOCCOCC(=O)O; βAla = NCCC(=O)O

T1: β-catenin (Homo sapiens, UniProt P35222)
T1 construct: cells harboring plasmid pGEX-β-catenin(133-665)52 were grown in LB medium; made in house; host or cells: E. coli BL21 (DE3)
T1 sequence (P35222 133-665): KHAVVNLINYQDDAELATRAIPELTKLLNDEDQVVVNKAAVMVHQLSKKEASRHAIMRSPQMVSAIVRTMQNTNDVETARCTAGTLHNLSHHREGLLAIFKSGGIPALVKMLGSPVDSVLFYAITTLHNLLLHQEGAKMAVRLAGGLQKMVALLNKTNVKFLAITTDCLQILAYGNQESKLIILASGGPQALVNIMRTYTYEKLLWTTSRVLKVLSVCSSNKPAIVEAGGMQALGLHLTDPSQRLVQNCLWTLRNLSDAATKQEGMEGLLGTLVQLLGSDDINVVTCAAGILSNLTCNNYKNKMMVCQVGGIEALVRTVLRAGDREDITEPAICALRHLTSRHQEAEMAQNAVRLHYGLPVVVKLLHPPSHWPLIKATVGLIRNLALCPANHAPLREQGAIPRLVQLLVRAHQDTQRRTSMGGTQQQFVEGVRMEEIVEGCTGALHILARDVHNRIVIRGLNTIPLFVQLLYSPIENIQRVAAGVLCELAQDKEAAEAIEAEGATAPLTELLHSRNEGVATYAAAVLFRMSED

T2: GST-β-catenin (UniProt P35222 133-665)
T2 construct: range 133-665; GST fusion purified on glutathione-agarose and used in the FP assays; also called GST-β-catenin(133-665); pGEX-β-catenin(133-665); not shown: glutathione S-transferase (GST) tag encoded by the pGEX plasmid
T2 sequence (looked up): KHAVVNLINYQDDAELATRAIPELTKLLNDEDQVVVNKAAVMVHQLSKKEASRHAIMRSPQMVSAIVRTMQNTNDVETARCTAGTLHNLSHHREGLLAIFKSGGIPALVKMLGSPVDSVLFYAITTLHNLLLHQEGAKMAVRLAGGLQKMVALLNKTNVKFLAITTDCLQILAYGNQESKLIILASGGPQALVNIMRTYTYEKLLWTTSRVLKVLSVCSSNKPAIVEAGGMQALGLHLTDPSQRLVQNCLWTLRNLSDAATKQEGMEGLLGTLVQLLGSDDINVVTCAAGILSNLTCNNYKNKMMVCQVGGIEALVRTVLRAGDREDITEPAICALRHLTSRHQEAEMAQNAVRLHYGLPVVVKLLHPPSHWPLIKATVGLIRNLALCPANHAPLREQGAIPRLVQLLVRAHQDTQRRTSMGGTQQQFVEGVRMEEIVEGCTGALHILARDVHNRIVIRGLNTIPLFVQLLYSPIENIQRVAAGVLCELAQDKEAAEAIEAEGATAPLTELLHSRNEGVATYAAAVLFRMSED

B1: Peptide 13 (peptide)
peptide: Ac-GGYPEDILDKHLQR[Tle][2Nal]L-NH2
modifications: lactam 6-10
notes: also called Ac-GGYPEDILDKHLQRZ(2-Nal)L-NH2
B2: Peptide 14 (peptide)
peptide: XXRXRXQGGYPEDILDKHLQRXXL
modifications: not fully specified; N-terminal CPP9-(miniPEG)2; Asp-Lys staple; Z = tert-leucine; 3-Bta = 3-benzothienyl-l-alanine; C-terminal amide
notes: also called CPP9-(miniPEG)2-GGYPEDILDKHLQRZ(3-Bta)L-NH2
B3: Peptide 18 (peptide)
peptide: Ac-GGYPEDILDKHLQR[Tle][Bta]L[AEEA][AEEA][Dap][dF][2Nal]R[dR]R[dR]Q
modifications: lactam 6-10; bridge (positions not given here); not fully specified (bridges); numbers in words are those of the source; also: cCPP9 ring hung on Dap18 side chain via Gln25 side chain, no backbone bond Dap18-X19
notes: also called Ac-GGYPEDILDKHLQRZ(3-Bta)L-(miniPEG)2-Dap(CPP9)
B4: Peptide 15 (peptide)
peptide: XXRXRXQGGYPEDILDKHLQRXXL
modifications: not fully specified; N-terminal CPP9-(miniPEG)2; Asp-Lys staple; Z = tert-leucine; 2-Nal = 2-napthylalanine; C-terminal amide
notes: also called CPP9-(miniPEG)2-GGYPEDILDKHLQRZ(2-Nal)L-NH2
B5: Peptide 28 (peptide)
peptide: Ac-YPEDILDKHLQRV[Tle]L[miniPEG][miniPEG][Dap]-NH2
modifications: lactam 4-8
notes: also called Ac-YPEDILDKHLQRVZL-(miniPEG)2-Dap-NH2
B6: Peptide 7 (peptide)
peptide: Ac-GGYPECILDCKHLQDVILK[βAla]-NH2
modifications: lactam (positions not given here); linker 6-10 via m‑xylene; not fully specified; also: Asp-Lys staple, places not given here (residues shown as images)
notes: Double stapled peptide
B7: Peptide 12 (peptide)
peptide: Ac-GGYPEDILDKHLQR[Tle][1Nal]L-NH2
modifications: lactam 6-10
notes: also called Ac-GGYPEDILDKHLQRZ(1-Nal)L-NH2
B8: Peptide 11 (peptide)
peptide: Ac-GGYPEDILDKHLQR[Tle][Bta]L-NH2
modifications: lactam 6-10
notes: also called Ac-GGYPEDILDKHLQRZ(3-Bta)L-NH2
B9: Peptide 16 (peptide)
peptide: Ac-GG[Bta]PEDILDKHLQR[Tle][Bta]L-NH2
modifications: lactam 6-10
SMILES: CC[C@H](C)[C@@H]1NC(=O)[C@@H](NC(=O)[C@H](CCC(=O)O)NC(=O)[C@@H]2CCCN2C(=O)[C@H](Cc2csc3ccccc23)NC(=O)CNC(=O)CNC(C)=O)CC(=O)NCCCC[C@@H](C(=O)N[C@@H](Cc2c[nH]cn2)C(=O)N[C@@H](CC(C)C)C(=O)N[C@@H](CCC(N)=O)C(=O)N[C@@H](CCCNC(=N)N)C(=O)N[C@H](C(=O)N[C@@H](Cc2csc3ccccc23)C(=O)N[C@@H](CC(C)C)C(N)=O)C(C)(C)C)NC(=O)[C@H](CC(=O)O)NC(=O)[C@H](CC(C)C)NC1=O
notes: also called Ac-GG(3-Bta)PEDILDKHLQRZ(3-Bta)L-NH2

target: T1, β-catenin; experiment: FP-based competition assay for binding to β-catenin; settings: IC50; competition with FAM-labeled peptide 1 (10 nM), 50 nM GST-β-catenin; read-out: KD or IC50
Experimental: Samples were transferred into black-on-black 384-well non-binding microplates (Greiner) and FP was measured using a Tecan M1000 Infinite plate reader. The data were analyzed using GraphPad Prism v. 8.0 and normalized to FP values corresponding to fully bound/unbound probe. All binding values reported are the mean±SD of independent experiments.
Protein Purification. […] Cells were harvested by centrifugation and lysed in lysis buffer (20 mM Tris, pH 8.0, 150 mM NaCl, 2 mM DTT, 1% Triton-X100, 200 mM EDTA, 10 mg/mL PMSF, and 0.2 mg/mL lysozyme) on ice for 20 min, followed by sonication (8 s off, 2 s on, 1 min total, performed twice at 70% amplitude). The homogenate was centrifuged (13,000 g for 30 min at 4° C. and the clear supernatant was loaded onto an equilibrated glutathione-agarose column. After exhaustive washing with wash buffer (20 mM Tris, pH 7.4, 150 mM NaCl, 2 mM DTT), the bound GST-β-catenin was eluted with wash buffer supplemented with 10 mM glutathione, concentrated, and stored at −80° C. in 30% glycerol.

CC[C@H](C)[C@@H]1NC(=O)[C@@H](NC(=O)[C@H](CCC(=O)O)NC(=O)[C@@H]2CCCN2C(=O)[C@H](Cc2ccc(O)cc2)NC(C)=O)CC(=O)NCCCC[C@@H](C(=O)N[C@@H](Cc2c[nH]cn2)C(=O)N[C@@H](CC(C)C)C(=O)N[C@@H](CCC(N)=O)C(=O)N[C@@H](CCCNC(=N)N)C(=O)N[C@H](C(=O)N[C@@H](Cc2csc3ccccc23)C(=O)N[C@@H](CCCNC(=N)N)C(=O)NCCOCCOCC(=O)NCCOCCOCC(=O)N[C@@H](CN)C(N)=O)C(C)(C)C)NC(=O)[C@H](CC(=O)O)NC(=O)[C@H](CC(C)C)NC1=O [Peptide 26, Ac-YPEDILDKHLQRZ(3-Bta)R-(miniPEG)2-Dap-NH2] (Ac-YPEDILDKHLQR[Tle][Bta]R[AEEA][AEEA][Dap]-NH2; lactam 4-8) and CC[C@H](C)[C@@H]1NC(=O)[C@@H](NC(=O)[C@H](CCC(=O)O)NC(=O)[C@@H]2CCCN2C(=O)[C@H](Cc2ccc(O)cc2)NC(C)=O)CC(=O)NCCCC[C@@H](C(=O)N[C@@H](Cc2c[nH]cn2)C(=O)N[C@@H](CC(C)C)C(=O)N[C@@H](CCC(N)=O)C(=O)N[C@@H](CCCNC(=N)N)C(=O)N[C@H](C(=O)N[C@@H](Cc2csc3ccccc23)C(=O)N[C@H](CCCNC(=N)N)C(=O)NCCOCCOCC(=O)NCCOCCOCC(=O)N[C@@H](CN)C(N)=O)C(C)(C)C)NC(=O)[C@H](CC(=O)O)NC(=O)[C@H](CC(C)C)NC1=O [Peptide 27, Ac-YPEDILDKHLQRZ(3-Bta)(dR)-(miniPEG)2-Dap-NH2] (Ac-YPEDILDKHLQR[Tle][Bta][dR][AEEA][AEEA][Dap]-NH2; lactam 4-8) are within 1.5-fold of each other in IC50: 37 nM for the first, 41 nM for the second.

target: T2, GST-β-catenin; experiment: Table 7, binding to β-catenin; FP competition as for peptides 2-5 presumed; settings: not given

Compared with Ac-YPEDILDKHLQ[dE]V[Bta]T[miniPEG][miniPEG][Dap]-NH2 (lactam 4-8) [Peptide 22], YPEDILDKHLQRXIL (N-terminal acetyl; Asp-Lys staple; Hvl = β-hydroxyvaline; C-terminal amide) [Peptide 37] is 23-fold lower in IC50: 3500 nM for the first, 154 nM for the second. The second is the more potent here.

First: B1
Second: Ac-YPEDILDKHLQSV[Bta][dS][miniPEG][miniPEG][Dap]-NH2 (lactam 4-8) [Peptide 23]
The IC50 of the first is 6.6-fold lower: 86 nM for the first, 565 nM for the second. The first is the more potent here.

Going from Ac-GGYPEDILDKHLQCVILC[βAla]-NH2 (lactam 6-10; linker 14-18 via m‑xylene, Double stapled peptide) [Peptide 8] to B2, the IC50 falls from 525000 nM to 63.5 nM (8300-fold).

Ac-GGYPEDILDKHLQR[Tle]WL-NH2 (lactam 6-10, also called Ac-GGYPEDILDKHLQRZWL-NH2) [Peptide 10] and B3 are within 1.5-fold of each other in IC50: 71 nM for the first, 104 nM for the second.

Going from B4 to B5, the IC50 rises from 79.4 nM to 306 nM (3.9-fold). The first is the more potent here.

Compared with B6, Ac-GGYPEDILDKHLQRVIL-NH2 (lactam (positions not given here); not fully specified) [Peptide 6] is 13-fold lower in IC50: 3200 nM for the first, 245 nM for the second. The second is the more potent here.

Compared with B7, B8 is 2.7-fold lower in IC50: 175 nM for the first, 65 nM for the second.

Going from Ac-YPEDILDKHLQSV[Bta]T[miniPEG][miniPEG][Dap]-NH2 (lactam 4-8) [Peptide 19] to Ac-YPEDILDKHLQEV[Bta]T[miniPEG][miniPEG][Dap]-NH2 (lactam 4-8) [Peptide 20], the IC50 rises from 382 nM to 1800 nM (4.7-fold). The first is the more potent here.

Compared with Ac-YPEDILDKHLQQV[Bta]T[miniPEG][miniPEG][Dap]-NH2 (lactam 4-8) [Peptide 21], B9 is 3.4-fold lower in IC50: 328 nM for the first, 97.9 nM for the second. The second is the more potent here.

system: SW480 cells; experiment: not given; format: cell-based; settings: MTT assay; read-out: EC50, viability / anti-proliferative activity against SW480 cells
Experimental: MTT Assay. SW480 (Wnt-addicted) and MCF7 (Wnt-independent) cells were seeded in 96-well plate with 3×10^3 cells per well, and allowed to grow overnight. […] After that, 10 μL of an MTT stock solution (5 mg/mL) was added into each well and the plate was incubated at 37° C. for 4 h. 100 μL of SDS-HCl solubilizing solution was added and the plate was incubated at 37° C. overnight. The absorbance of the formazan product formed was measured at 570 nm on a Tecan microtiter plate reader. Cells were incubated with serially diluted compounds for 72 hours in the presence of 10% FBS. Data reported represent the mean±SD of 3 independent experiments.
Cell Viability Assay. Cell viability was determined using the MTT assay. […] Trypsin was neutralized with the addition of warm DPBS and cells were pelleted down at 200 g for 5 min at 4° C. […] Com-pounds were serially diluted in DPBS with standardized DMSO concentration (0.5% v/v) and added to each well. […] After that, 10 μL of MTT solution was added to each well, followed by incubation for 4 h at 37° C., 5% CO2. […] The next day, A565 was determined using a Tecan M1000 Infinite plate reader and absorbance values were standardized against cell-free wells and normalized to untreated control cells. Data was analyzed using GraphPad Prism v. […]

CC[C@H](C)[C@@H]1NC(=O)[C@@H](NC(=O)[C@H](CCC(=O)O)NC(=O)[C@@H]2CCCN2C(=O)[C@H](Cc2ccc(O)cc2)NC(=O)CNC(=O)CNC(C)=O)CC(=O)NCCCC[C@@H](C(=O)N[C@@H](Cc2c[nH]cn2)C(=O)N[C@@H](CC(C)C)C(=O)N[C@@H](CCC(N)=O)C(=O)N[C@@H](CCCNC(=N)N)C(=O)N[C@H](C(=O)N[C@H](C(=O)N[C@@H](CC(C)C)C(=O)NCCOCCOCC(=O)NCCOCCOCC(=O)N[C@@H](CNC(=O)CC[C@@H]2NC(=O)[C@@H](CCCNC(=N)N)NC(=O)[C@H](CCCNC(=N)N)NC(=O)[C@@H](CCCNC(=N)N)NC(=O)[C@H](CCCNC(=N)N)NC(=O)[C@H](Cc3ccc4ccccc4c3)NC(=O)[C@@H](Cc3ccccc3)NC2=O)C(N)=O)[C@@H](C)CC)C(C)C)NC(=O)[C@H](CC(=O)O)NC(=O)[C@H](CC(C)C)NC1=O [peptide 2] (I: Ac-GGYPEDILDKHLQRVIL[AEEA][AEEA][Dap]-NH2 / II: cyclo([2Nal]R[dR]R[dR]E[dF]); lactam I:6-I:10; amide I:20-II:6) gave an EC50 of 3700 nM.
